{"source": "paper PMC5578738", "key": {"[1]": {"target": "Side-VI (CG34114) complete ectodomain, biotinylated (SPR) (Drosophila melanogaster) (UniProt Q0KI85)", "sequence (Q0KI85 entry or part of it)": "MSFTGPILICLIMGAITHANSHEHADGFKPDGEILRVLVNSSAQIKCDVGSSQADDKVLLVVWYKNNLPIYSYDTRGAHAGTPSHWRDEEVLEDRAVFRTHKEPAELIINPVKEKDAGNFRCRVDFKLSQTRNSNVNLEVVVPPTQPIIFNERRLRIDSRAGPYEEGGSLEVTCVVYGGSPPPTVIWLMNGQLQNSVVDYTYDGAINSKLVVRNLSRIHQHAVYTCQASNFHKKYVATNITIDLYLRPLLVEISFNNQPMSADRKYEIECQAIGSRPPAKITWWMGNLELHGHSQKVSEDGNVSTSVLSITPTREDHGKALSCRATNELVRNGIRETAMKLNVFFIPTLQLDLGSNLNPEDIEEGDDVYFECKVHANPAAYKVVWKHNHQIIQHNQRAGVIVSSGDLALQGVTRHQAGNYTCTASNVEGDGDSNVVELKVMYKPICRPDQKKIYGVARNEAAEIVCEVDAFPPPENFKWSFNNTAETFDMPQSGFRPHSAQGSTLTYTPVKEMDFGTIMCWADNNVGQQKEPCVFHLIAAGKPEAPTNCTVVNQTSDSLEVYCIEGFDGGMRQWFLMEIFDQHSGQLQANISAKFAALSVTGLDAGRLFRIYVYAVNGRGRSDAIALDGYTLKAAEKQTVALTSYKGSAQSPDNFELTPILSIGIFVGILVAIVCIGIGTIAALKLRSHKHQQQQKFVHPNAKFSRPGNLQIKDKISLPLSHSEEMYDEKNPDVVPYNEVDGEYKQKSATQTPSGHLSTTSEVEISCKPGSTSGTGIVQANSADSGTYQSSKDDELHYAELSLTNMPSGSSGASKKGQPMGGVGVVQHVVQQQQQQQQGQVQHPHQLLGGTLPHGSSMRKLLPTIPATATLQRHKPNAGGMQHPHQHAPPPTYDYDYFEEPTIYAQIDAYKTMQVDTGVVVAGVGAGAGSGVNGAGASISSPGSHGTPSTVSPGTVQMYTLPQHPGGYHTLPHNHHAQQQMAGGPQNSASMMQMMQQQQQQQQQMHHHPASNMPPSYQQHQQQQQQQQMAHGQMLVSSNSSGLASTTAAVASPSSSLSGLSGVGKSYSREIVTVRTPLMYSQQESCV", "assay": "SPR; Biacore T100; biotinylated Side-VI captured on an SA chip, Beat-Va or Beat-Vb flowed over; HBSp+ with 500 mM NaCl and 15% glycerol; equilibrium responses fitted to a Langmuir isotherm"}, "[2]": {"target": "Beat-VI complete ectodomain, biotinylated (SPR) (Drosophila melanogaster) (UniProt Q9VAV8)", "sequence (Q9VAV8 entry or part of it)": "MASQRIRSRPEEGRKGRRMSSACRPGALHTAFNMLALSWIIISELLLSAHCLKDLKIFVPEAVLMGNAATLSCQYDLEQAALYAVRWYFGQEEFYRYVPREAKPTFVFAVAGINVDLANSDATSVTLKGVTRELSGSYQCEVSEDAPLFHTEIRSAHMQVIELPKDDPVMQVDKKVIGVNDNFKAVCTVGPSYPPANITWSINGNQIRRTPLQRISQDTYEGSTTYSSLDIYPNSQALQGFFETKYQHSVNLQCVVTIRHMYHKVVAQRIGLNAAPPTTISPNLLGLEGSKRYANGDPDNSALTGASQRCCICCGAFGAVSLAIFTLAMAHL", "assay": "SPR; Biacore 3000; biotinylated Beat-VI or Beat-Ic captured on an SA chip, Side-II or Side-III fragments flowed over; HBSp+ and 1% (w/v) BSA; equilibrium fit, three titration series"}, "[3]": {"target": "Beat-Ic complete ectodomain, biotinylated (SPR) (Drosophila melanogaster) (UniProt Q7JUP9)", "sequence (Q7JUP9 entry or part of it)": "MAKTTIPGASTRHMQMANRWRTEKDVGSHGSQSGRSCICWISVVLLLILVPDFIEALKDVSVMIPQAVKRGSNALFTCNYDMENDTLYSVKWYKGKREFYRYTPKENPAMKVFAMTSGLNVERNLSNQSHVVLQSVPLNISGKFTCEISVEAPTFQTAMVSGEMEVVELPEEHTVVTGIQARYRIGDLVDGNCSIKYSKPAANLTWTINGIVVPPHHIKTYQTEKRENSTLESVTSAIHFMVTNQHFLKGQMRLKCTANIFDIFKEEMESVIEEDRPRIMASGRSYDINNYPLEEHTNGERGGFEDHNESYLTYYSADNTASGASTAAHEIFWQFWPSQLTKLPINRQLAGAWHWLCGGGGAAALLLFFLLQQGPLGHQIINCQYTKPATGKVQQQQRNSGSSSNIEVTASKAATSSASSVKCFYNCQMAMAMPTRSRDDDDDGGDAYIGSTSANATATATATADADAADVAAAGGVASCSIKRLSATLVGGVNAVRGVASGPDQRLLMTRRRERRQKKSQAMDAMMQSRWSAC", "assay": "SPR; Biacore 3000; biotinylated Beat-VI or Beat-Ic captured on an SA chip, Side-II or Side-III fragments flowed over; HBSp+ and 1% (w/v) BSA; equilibrium fit, three titration series"}}, "data": [{"substance": "Beat-Vb complete ectodomain (SPR) (from UniProt Q9VG19 1-328) (domain or fragment)", "values": [{"measurement": "Kd", "setting": "[1]", "value": 2.3, "unit": "µM"}, {"measurement": "koff", "setting": "[1]", "value": "> 0.5", "unit": "s⁻¹"}]}, {"substance": "Side-II N-terminal single IgSF domain (SPR) (from UniProt Q59DZ1 1-1064) (domain or fragment)", "values": [{"measurement": "Kd", "setting": "[2]", "value": 2.78, "unit": "µM"}]}, {"substance": "Side-III N-terminal single IgSF domain (SPR) (domain or fragment)", "values": [{"measurement": "Kd", "setting": "[3]", "value": 63.5, "unit": "µM"}]}]}
